Test results: PMC7732855

Biological target: heat shock protein 60 (Hsp60), surface-expressed on Caco-2 cells (human (endogenous in Caco-2)) (UniProt P10809)
UniProt P10809, sequence (P10809 27-573): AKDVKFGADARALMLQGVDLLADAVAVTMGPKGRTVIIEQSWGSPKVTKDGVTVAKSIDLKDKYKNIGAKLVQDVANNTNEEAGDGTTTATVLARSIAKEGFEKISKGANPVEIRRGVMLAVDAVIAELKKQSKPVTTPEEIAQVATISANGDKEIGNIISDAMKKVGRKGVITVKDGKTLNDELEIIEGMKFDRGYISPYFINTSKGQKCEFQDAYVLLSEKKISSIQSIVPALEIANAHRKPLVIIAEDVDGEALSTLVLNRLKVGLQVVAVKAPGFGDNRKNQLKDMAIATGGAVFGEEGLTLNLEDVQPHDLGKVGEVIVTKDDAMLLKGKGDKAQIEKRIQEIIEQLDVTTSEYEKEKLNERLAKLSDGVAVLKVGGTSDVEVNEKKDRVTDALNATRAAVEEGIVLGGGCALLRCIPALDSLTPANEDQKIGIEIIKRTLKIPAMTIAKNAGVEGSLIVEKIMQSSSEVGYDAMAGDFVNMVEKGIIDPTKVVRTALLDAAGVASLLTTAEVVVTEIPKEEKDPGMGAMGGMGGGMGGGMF

Row | Molecule | adhesion of the BLP strain (MOE 10, 1 h) to Hsp60^+ Caco-2 cells (Hsp60 overexpressed), relative to LbcWT | adhesion of the BLP strain (MOE 10, 1 h) to Hsp60^Vec Caco-2 cells (basal Hsp60), relative to LbcWT
1 | Listeria adhesion protein (LAP) from Listeria monocytogenes F4244, expressed on the surface of Lactobacillus casei (strain LbcLAP^Lm) (natural protein) | 9 fold | 4 fold
2 | Listeria adhesion protein (LAP) from Listeria innocua F4248, expressed on the surface of Lactobacillus casei (strain LbcLAP^Lin) (natural protein) MAIKENAAQEVLEVQKVIDRLADNGQKALKAFESYNQEQVDNIVHAMALAGLDQHMPLAKLAVEETGRGLYEDKCIKNIFATEYIWNNIKNNKTVGVINEDTQTGVIEIAEPVGVVAGVTPVTNPTSTTLFKAIIAIKTRNPIIFAFHPSAQRCSSEAAKVVYDAAVAAGAPEHCIQWVEKPSLEATKQLMNHDKVALVLATGGAGMVKSAYSTGKPALGVGPGNVPAYIDKTAKIKRSVNDIILSKSFDQGMICASEQAVIVDKEVAKEVKAEMEANKCYFVKGAEFKKLESYVINPEKGTLNPDVVGKSPAWIANQAGFKVPEDTKILVAEIKGVGDKYPLSHEKLSPVLAFIEAANQAEAFDRCEEMLVYGGLGHSAVIHSTDKEVQKAFGIRMKACRIIVNAPSAQGGIGDIYNGFIPSLTLGCGSYGKNSVSQNVSATNLLNVKRIADRRNNMQWFKLPPKIFFEKYSTQYLQKMEGVERVFIVTDPGMVQFKYVDVVIEHLKKRGNDVAYQVFADVEPDPSDVTVYKGAELMKDFKPDTIIALGGGSAMDAAKGMWLFYEHPEASFFGLKQKFLDIRKRTFKYPKLGGKAKFVAIPTTSGTGSEVTPFAVITDKENNIKYPLADYELTPDVAIVDAQYVTTVPAHITADTGMDVLTHAIESYVSVMASDYTRGLSIRAIELVFENLRESVLTGDPDAREKMHNASALAGMAFANAFLGINHSLAHKIGPEFHIPHGRANAILMPHVIRYNALKPKKHALFPRYESFRADEDYARISRIIGFPAATTEEGVKSLVDEIIKLGKDVGIDMSLKGQNVAKKDLDAVVDTLADRAFMDQCTTANPKQPLVSELKEIYLEAYKGV | 9 fold | 4 fold
